From patent US20200330514A1 (TORQUE THERAPEUTICS, published 2020)

Assays:
[1] = target: T1, human CD45 receptor on the surface of human T cells (human, UniProt P08575 26-1306); test: flow cytometry titration on activated primary human CD8 T cells, anti-human IgG-Fc detection
T1 construct: whole, on cells; also called cellular CD45; leukocyte common antigen
T1 sequence (looked up): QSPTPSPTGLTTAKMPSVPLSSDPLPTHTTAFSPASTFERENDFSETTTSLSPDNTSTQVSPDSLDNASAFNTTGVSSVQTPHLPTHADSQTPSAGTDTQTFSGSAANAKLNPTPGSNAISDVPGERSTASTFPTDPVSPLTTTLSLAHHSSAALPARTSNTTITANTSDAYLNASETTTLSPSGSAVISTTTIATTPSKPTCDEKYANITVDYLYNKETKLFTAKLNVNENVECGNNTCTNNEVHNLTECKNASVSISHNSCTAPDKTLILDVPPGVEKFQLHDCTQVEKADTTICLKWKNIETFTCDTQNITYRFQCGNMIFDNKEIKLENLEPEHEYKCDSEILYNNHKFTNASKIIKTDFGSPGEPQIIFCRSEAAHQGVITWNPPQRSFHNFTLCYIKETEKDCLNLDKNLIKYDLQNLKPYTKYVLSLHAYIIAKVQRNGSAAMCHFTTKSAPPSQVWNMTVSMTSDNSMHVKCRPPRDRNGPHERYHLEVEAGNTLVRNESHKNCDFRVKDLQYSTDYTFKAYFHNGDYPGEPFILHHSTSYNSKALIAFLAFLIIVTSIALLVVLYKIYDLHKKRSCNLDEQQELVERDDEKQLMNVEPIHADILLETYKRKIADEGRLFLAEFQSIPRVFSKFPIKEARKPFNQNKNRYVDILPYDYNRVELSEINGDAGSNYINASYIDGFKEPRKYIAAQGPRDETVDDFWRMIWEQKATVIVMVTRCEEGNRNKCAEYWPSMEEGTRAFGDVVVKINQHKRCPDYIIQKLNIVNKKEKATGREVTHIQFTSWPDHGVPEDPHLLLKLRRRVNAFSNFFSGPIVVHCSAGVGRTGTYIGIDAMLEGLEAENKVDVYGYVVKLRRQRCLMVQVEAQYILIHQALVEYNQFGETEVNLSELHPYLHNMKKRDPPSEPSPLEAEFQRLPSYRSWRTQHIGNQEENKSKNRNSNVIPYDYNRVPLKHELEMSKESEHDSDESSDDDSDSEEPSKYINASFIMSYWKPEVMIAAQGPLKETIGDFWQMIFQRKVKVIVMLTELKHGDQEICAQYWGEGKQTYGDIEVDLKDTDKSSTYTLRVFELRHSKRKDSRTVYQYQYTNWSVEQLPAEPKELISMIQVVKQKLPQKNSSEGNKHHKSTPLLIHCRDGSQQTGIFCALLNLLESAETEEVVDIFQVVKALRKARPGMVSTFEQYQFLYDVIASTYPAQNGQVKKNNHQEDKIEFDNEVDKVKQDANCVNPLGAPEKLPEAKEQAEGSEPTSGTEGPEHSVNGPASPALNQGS
Excerpt: To evaluate whether anti-CD45 antibodies other than BC8 are capable of generating IFMs with improved potency, we evaluated two additional anti-CD45 monoclonal antibodies (mAb clones 9.4 and 4B2). We first evaluated the binding affinities of chimeric IgG forms of these antibodies to CD45 expressed on the surface of activated CD8 T cells. The chimeric antibodies each comprise mouse variable domains and human constant region (human constant kappa domain and human IgG4 containing an S228P mutation to stabilize the IgG4 hinge region). For comparison with previous results we evaluated these antibodies alongside chBC8, hBC8(23), and a non-binding variant hBC8-null. The humanized BC8 antibody consists of variable domains containing CDR regions grafted from BC8, and the hBC8-null variant contains an SGGGS substitution in the heavy-chain CDR3, which ablates binding to CD45 (FIG. 10A). […]
Cell binding assay. […] Cells were washed with MACS buffer (PBS, 2% FBS, 1 mM EDTA) three times, and antibody binding was detected using a PE-conjugated anti-human IgG-Fc antibody (BioLegend, cat. no. HP6017) for 20 min. at 4° C. […]

[2] = target: T2, mouse CD45 on the surface of mouse T cells (mouse, UniProt P06800 26-1293); test: pulse incubation at 125 nM on activated mouse CD8 T cells, anti-mouse IL-12 staining by flow cytometry (FIG. 32)
T2 construct: whole, on cells
T2 sequence (looked up): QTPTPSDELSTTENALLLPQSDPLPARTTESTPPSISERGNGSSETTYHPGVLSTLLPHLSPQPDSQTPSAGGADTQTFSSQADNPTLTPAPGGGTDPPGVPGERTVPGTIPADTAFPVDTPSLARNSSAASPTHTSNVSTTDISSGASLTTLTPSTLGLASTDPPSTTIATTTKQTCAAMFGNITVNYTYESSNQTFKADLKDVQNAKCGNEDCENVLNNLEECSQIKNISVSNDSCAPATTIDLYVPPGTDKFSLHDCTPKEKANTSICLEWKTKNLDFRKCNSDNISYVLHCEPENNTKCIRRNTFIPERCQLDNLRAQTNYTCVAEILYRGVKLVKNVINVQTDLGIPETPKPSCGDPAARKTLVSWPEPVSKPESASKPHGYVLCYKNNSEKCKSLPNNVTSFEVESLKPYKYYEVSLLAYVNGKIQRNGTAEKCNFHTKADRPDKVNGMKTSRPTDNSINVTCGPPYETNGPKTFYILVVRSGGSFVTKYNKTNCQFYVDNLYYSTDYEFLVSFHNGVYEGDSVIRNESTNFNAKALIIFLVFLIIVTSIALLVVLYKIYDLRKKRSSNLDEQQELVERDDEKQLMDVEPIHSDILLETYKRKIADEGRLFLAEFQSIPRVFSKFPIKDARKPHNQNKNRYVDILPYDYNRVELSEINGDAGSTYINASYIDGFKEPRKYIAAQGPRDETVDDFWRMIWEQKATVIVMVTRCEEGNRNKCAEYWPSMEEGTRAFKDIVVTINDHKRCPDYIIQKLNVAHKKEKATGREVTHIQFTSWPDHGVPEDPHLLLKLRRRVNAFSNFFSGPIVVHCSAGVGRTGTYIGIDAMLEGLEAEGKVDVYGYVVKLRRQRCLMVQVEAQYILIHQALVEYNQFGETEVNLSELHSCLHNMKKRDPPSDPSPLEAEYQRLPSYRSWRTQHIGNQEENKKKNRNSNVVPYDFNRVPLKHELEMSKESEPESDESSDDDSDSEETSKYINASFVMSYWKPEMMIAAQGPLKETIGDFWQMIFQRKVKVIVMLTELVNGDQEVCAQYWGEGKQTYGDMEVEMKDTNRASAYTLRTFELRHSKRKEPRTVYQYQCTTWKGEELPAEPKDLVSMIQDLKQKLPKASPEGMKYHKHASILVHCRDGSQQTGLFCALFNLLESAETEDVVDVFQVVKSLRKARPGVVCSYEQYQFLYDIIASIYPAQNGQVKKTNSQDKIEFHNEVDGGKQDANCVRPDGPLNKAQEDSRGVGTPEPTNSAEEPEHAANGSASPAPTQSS
Protocol: We evaluated the ability of tethered fusions comprising an antibody specific for mouse CD45 and the mouse scIL-12p70 cytokine to facilitate loading and persistence of IL-12 on the surface of mouse T cells. Prior to incubation with the mouse IL12-TFs, mouse CD8 T cells were isolated from Pmel mice, activated for two days using antibodies against mouse CD3 and CD28 receptors, and then expanded in the presence of IL-21 for two days. Briefly, isolated CD8 T cells were incubated in full medium (containing RPMI 1640, 10% FBS, insulin-transferrin-selenium, penicillin/streptomycin, and 50 uM beta-mercaptoethanol) in Nunc HighBind plates that were previously coated with antibodies against mouse CD3 and CD28 receptors; the CD3 and CD28 antibodies were coated at concentrations of 0.5 ug/mL and 5 ug/mL, respectively. After approximately 24 hr incubation on the antibody-coated plates IL-2 and IL-7 were added to a final concentrations of 20 ng/mL and 0.5 ng/mL respectively. After a second day of incubation, cells were recovered from the antibody-coated plates and diluted to a density of approximately 200,000 cells/mL into medium containing IL-21 at a final concentration of 20 ng/mL. […] On Days 0, 1, 3, and 5 after the pulse incubation cells were immunostained using antibodies specific to mouse IL-12 and analyzed on a FACSCelesta using Diva Software; data was analyzed using FlowJo. […]

B1: hBC8-null humanized BC8 antibody with SGGGS substitution in CDR-H3 (IgG form) (antibody, V domains shown)
VH: EVQLVESGGGLVQPGGSLRLSCAASGFDFSRYWMSWVRQAPGKGLEWIGEINPTSSTINFADSVKGRFTISRDNAKNSLYLQMNSVRDEDTAVYYCARGSGGGSGDAMDYWGQGTLVTVSS
VL: EIVLTQSPATLSLSLGERATISCRASKSVSTSGYSYLHWYQQKPGQAPKLLIYLASNRATGVPARFSGSGPGTDFTLTISSLEPEDFATYYCQHSRELPFTFGQGTKLEIK
notes: constant regions of the tested antibody not spelled out; also called hBC8(23)-null
B1: no binding (tested: 500 nM) [1].

B2: chM1Fab-M1scFv-scIL-12p70 (other)
heavy: QVNLLQSGAALVKPGASVKLSCKASGYTFTDYYIHWVKQSHGKSLEWVAYINPDRDYTNYNEKFKSKATLTVDKSTNTAYMELSRLTSEDSATFYCTRRLYDGAYYYSWFAYWGQGTLVTVSSASTKGPSVFPLAPSSKSTSGGTAALGCLVKDYFPEPVTVSWNSGALTSGVHTFPAVLQSSGLYSLSSVVTVPSSSLGTQTYICNVNHKPSNTKVDKKVEPKSCGGGGSGGGGSGGGGSQVNLLQSGAALVKPGASVKLSCKASGYTFTDYYIHWVKQSHGKSLEWVAYINPDRDYTNYNEKFKSKATLTVDKSTNTAYMELSRLTSEDSATFYCTRRLYDGAYYYSWFAYWGQGTLVTVSSGGGGSGGGGSGGGGSGGGGSDIQMTQSPHSLSASLGETVSIECLASEGISNYLAWYQQKPGKSPQLLIYYGSRLQDGVPSRFSGSGSGTQYSLRITNMQPEDEGVYYCQQGYKYPYTFGAGTKLELK
light: DIQMTQSPHSLSASLGETVSIECLASEGISNYLAWYQQKPGKSPQLLIYYGSRLQDGVPSRFSGSGSGTQYSLRITNMQPEDEGVYYCQQGYKYPYTFGAGTKLELKRTVAAPSVFIFPPSDEQLKSGTASVVCLLNNFYPREAKVQWKVDNALQSGNSQESVTEQDSKDSTYSLSSTLTLSKADYEKHKVYACEVTHQGLSSPVTKSFNRGECGGGGSGGGGSGGGGSMWELEKDVYVVEVDWTPDAPGETVNLTCDTPEEDDITWTSDQRHGVIGSGKTLTITVKEFLDAGQYTCHKGGETLSHSHLLLHKKENGIWSTEILKNFKNKTFLKCEAPNYSGRFTCSWLVQRNMDLKFNIKSSSSSPDSRAVTCGMASLSAEKVTLDQRDYEKYSVSCQEDVTCPTAEETLPIELALEARQQNKYENYSTSFFIRDIIKPDPPKNLQMKPLKNSQVEVSWEYPDSWSTPHSYFSLKFFVRIQRKKEKMKETEEGCNQKGAFLVEKTSTEVQCKGGNVCVQAQDRYYNSSCSKWACVPCRVRSGGGGSGGGGSGGGGSGGGGSRVIPVSGPARCLSQSRNLLKTTDDMVKTAREKLKHYSCTAEDIDHEDITRDQTSTLKTCLPLELHKNESCLATRETSSTTRGSCLPPQKTSLMMTLCLGSIYEDLKMYQTEFQAINAALQNHNHQQIILDKGMLVAIDELMQSLNHNGETLRQKPPVGEADPYRVKMKLCILLHAFSTRVVTINRVMGYLSSA
B2: binds [2].
